Measured values as given in paper PMC2824606.

Biological target: yHsp90-Y24F, bacterially expressed and purified (N-terminally His6-tagged, pRSETA) (Saccharomyces cerevisiae) (UniProt P02829)
Experiment: ITC

Work on “Aha1 used for the in vitro binding constants (from UniProt Q12449 1-350) (natural protein)” yielded a Kd of 1.8 µM.
